The record followed here is patent US9688764B2, “Methods of treating breast cancer by administering anti-human prolactin receptor (PRLR) antibodies” (REGENERON PHARMACEUTICALS, INC., priority 2013, dated 2017).

Sequences and labels used below:
T1: PRLR-expressing cells (T47D) (Homo sapiens, UniProt P16471)
T1 construct: a native PRLR expressing cell line (T47D); endogenous in cells; host or cells: T47D
T1 sequence (P16471 25-622): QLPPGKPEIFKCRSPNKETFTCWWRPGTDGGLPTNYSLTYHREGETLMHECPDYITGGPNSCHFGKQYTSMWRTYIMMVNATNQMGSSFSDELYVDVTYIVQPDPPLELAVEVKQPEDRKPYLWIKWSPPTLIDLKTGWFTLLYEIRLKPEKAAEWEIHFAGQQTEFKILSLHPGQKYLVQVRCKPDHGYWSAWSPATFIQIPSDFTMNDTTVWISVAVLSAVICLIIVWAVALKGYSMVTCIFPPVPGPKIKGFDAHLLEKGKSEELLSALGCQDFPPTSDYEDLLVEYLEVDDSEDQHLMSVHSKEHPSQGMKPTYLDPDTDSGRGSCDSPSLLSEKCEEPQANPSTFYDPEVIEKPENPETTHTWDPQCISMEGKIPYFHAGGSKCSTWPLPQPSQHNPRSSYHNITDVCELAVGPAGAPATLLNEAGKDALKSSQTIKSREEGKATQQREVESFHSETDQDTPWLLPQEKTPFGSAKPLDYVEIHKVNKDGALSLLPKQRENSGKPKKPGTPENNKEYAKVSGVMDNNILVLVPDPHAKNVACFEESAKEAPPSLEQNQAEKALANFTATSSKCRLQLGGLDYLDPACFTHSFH

B1: H1H6803P: anti-PRLR antibody, human IgG1 Fc; HCVR/LCVR SEQ ID NOs 226/234 (antibody, V domains shown)
VH: EVQLVESGGGVVRPGGSLRLSCAASGFKFDDYGMTWVRHVPGKGLEWVSGINWNGGRTGYTDSVKGRFTISRDNAKNSLYLQMNSLRAEDTALYHCAGARRDAFDIWGQGTMVTVSS
VL: DIQMTQSPSSLSASIGDRVTITCRASQNIIKYLNWYQQNAGKAPKLLIYTASSLQSGVPSRFSGSGSGTDFTLTISSLQPEDFATYYCQQSSSSPYTFGQGTKLEIK
modifications: human IgG1 Fc
B2: H1H6804P: anti-PRLR antibody, human IgG1 Fc; HCVR/LCVR SEQ ID NOs 242/250 (antibody, V domains shown)
VH: QVTLKESGPVLVKPTQTLSLTCTVSGFSLSDAGMGVSWIRQPPGKALEWLAHIFSNDGKSYSTSLKSRLTISKDTSKRQVVLTMTNMDPVDTATYYCARIRTGTYSLYLDYWGQGTLVTVSS
VL: DIQMTQSPSSLSASVGDRVTITCRASQSINSYLNWYQQKPGKAPKLLLYFASSLQSGVPSRFSGSGSGTDFTLTISSLQPEDFASYYCQESYSTPWTFGQGTKVEIK
modifications: human IgG1 Fc
B3: H1H6795P: anti-PRLR antibody, human IgG1 Fc; HCVR/LCVR SEQ ID NOs 162/170 (antibody, V domains shown)
VH: QVQLVQSGAEVKKPGASVKVSCKASGYTFGTSGITWVRQAPGQGLEWMGWSSAYNGKTDYAQKFQDRVTMTTDTSTTTGYMEMRSLTSDDTAVYYCTTVVRRPFDFWGQGTLVTVSS
VL: DIQMTQSPSSLSASVGDRVTITCRASQDINNFLAWFQQKPGKAPKSLIYAASSLQSGVPSKFSGGGSGTDFALTISSLQPEDFATYYCQQYSSYPITFGQGTRLEIK
modifications: human IgG1 Fc
B4: H1H6800P: anti-PRLR antibody, human IgG1 Fc; HCVR/LCVR SEQ ID NOs 194/202 (antibody, V domains shown)
VH: EVQLVESGGGLVQPGRSLRLSCAASGFTFDGYAMHWVRQGPGKGLEWVSGISWYSDTLGYADSVKGRFTISRDNAKNSLYLQMNSLRTEDTAFYYCAKISSSGWAFDYWGQGTLVTVSS
VL: EIVLTQSPGTLSLSPGERATLSCRASHSVSSAYLAWYQQKPGQTPRLLIYGTSSRATGIPDRFSGSGSGTDFTLTISRLEPEDFAVYYCQQYGSSPLFTFGPGTKVDIK
modifications: human IgG1 Fc
B5: H1H6793P: anti-PRLR antibody, human IgG1 Fc; HCVR/LCVR SEQ ID NOs 146/154 (antibody, V domains shown)
VH: EVQLVESGGGLVQPGGSLRLSCAASGFSFSIYAMSWFRQAPGKGLEWVSAINGRGDGTHYADSVKGRFTISRDNSKTTLYLQMSSLRAEDTAVYYCAKPVMSTNGFDIWGQGTMVTVSS
VL: DIQMTQSPSTLSASVGDRVTITCRASQSISSWLAWYQLKPGKAPKLLIYKASNLESGVPSRFSGSGSGTEFTLTISSLQPDDFATYYCQQYNIYWTFGQGTKVEIK
modifications: human IgG1 Fc
B6: H1H6801P: anti-PRLR antibody, human IgG1 Fc; HCVR/LCVR SEQ ID NOs 210/218 (antibody, V domains shown)
VH: QVQLQQSGPGLVKPSQTLSLTCVISGDSVSSNTAWNWVRQSPSRGLEWLGRTYYRSKWYNDYAVSVKSRITINPDTSKNQFSLLMNSVTPEDTAVYYCARVVRGLNYFDYWGQGTLVTVSS
VL: DIVMTQSPDSLAVSLGERATINCKSSQSVLYNSNNKNYLAWYQQKPGQPPKLLIYWSSSRESGVPDRFSGSGSGTDFTLTISGLQAEDVAIYYCQQYSTIPYTFGQGTKLEIK
modifications: human IgG1 Fc
B7: H1H6797P: anti-PRLR antibody, human IgG1 Fc; HCVR/LCVR SEQ ID NOs 178/186 (antibody, V domains shown)
VH: EVQLVESGGGLVQPGGSLRLSCIVSGFTFSGSWMSWVRQLPGKGLEWVANIKEDGSDSYYVDSVEGRFTISRDNAKSSLYLQMNSLRVDDTAVYFCARARTVPLHYWGQGTLVTVSS
VL: DIQMTQSPSTLSASVGDRVTITCRASQSINIWLAWYQQKPGKAPKLLIYRASYLESGVPSSFAGGGSGTEFTLTISSLQPDDFGTYYCQHYNSYPFTFGQGTKLEIK
modifications: human IgG1 Fc

The test system of one assay is HEK293/mfPRLR. The assay is described as follows: FACS cell surface binding. Set-up: species or system macaca fascicularis.
HEK293/mfPRLR, sequence (as listed by the source): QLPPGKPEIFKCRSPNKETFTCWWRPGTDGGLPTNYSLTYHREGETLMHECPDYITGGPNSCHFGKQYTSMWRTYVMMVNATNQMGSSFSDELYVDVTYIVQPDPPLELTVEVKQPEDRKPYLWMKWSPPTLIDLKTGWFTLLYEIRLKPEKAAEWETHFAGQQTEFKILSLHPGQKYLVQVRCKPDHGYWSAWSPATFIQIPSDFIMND
Conditions: not given
A digest of the protocol:
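HEK293 lines stably expressing HA-tagged human, cynomolgus or mouse PRLR, native-expressing T47D and parental HEK293 tested by flow cytometry. Cells (1×10^5) stained with primary antibody 30 min on ice, then PE anti-human secondary; MFI expressed as fold over isotype control.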
With B1, the “FACS Cell Binding (Fold Above Background)” value stood at 28 Fold Above Background.

For the molecule B2, the “FACS Cell Binding (Fold Above Background)” value turned out to be 29 Fold Above Background.

For B3, the “FACS Cell Binding (Fold Above Background)” value came out at 22 Fold Above Background.

For B4, the “FACS Cell Binding (Fold Above Background)” value is recorded as 29 Fold Above Background.

Take B5: the “FACS Cell Binding (Fold Above Background)” value was determined as 32 Fold Above Background.

Regarding B6, the “FACS Cell Binding (Fold Above Background)” value is reported as 88 Fold Above Background.

B7: the “FACS Cell Binding (Fold Above Background)” value worked out at 25 Fold Above Background.

The target in the next assay is T1, PRLR-expressing cells (T47D). The assay is described as follows: Antibody binding and internalization by PRLR-expressing cells (imaging). It counts as cell-based. Particulars: [mAb] (0.67 nM), alexa488 intensity in intracellular vesicles, 1 h at 37° C.
In the case of B1, the “% Internalization relative to Control I” value was 190.5%.

As for B2, the “% Internalization relative to Control I” value is 138.9%.

For the molecule B3, the “% Internalization relative to Control I” value came out at 150.7%.

Regarding B4, the “% Internalization relative to Control I” value is on record as 198.3%.

As for B5, the “% Internalization relative to Control I” value came out at 179.9%.

For B6, the “% Internalization relative to Control I” value is on record as 148.9%.

In the case of B7, the “% Internalization relative to Control I” value is listed as 145.2%.

Staying with this assay, now noted: [mAb] (0.67 nM), whole cell alexa488 intensity at 37° C.
In the case of B1, the “% Total Binding relative to Control I” value came out at 205.5%.

Consider B2, for which the “% Total Binding relative to Control I” value was 149.6%.

Regarding B3, the “% Total Binding relative to Control I” value is 123.4%.

As to B4, the “% Total Binding relative to Control I” value worked out at 186.8%.

Turning to B5, the “% Total Binding relative to Control I” value is on record as 177.9%.

On to B6, for which the “% Total Binding relative to Control I” value was 155.7%.

Take B7: the “% Total Binding relative to Control I” value stood at 151.2%.

The target of another assay is T2, hPRLR.mmh (soluble monomeric human PRLR) (Homo sapiens, UniProt P16471).
T2 construct: soluble monomeric (hPRLR.mmh); mmh (myc-myc-hexahistidine)
T2 sequence (P16471 with tags, fused parts or gaps): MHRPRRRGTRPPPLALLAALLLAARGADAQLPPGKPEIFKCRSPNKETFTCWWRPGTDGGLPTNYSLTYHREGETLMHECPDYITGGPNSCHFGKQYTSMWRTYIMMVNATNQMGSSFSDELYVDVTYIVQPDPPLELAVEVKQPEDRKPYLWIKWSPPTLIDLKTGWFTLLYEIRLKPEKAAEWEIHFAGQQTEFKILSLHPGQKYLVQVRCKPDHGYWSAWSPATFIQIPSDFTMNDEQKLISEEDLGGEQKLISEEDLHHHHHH
The assay can be described thus: Surface plasmon resonance (Biacore T200), mAb-capture format. Particulars: 25° C., antibody-capture format, analyte hPRLR.mmh. In kind it is binding. A digest of the protocol:
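First, IgG1-format antibodies were captured via anti-human Fc on the chip. Next, monomeric hPRLR.mmh or mfPRLR.mmh, or dimeric hPRLR.mFc, was injected. Finally, association and dissociation rates were fitted to 1:1 binding.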
As usually defined, the Kd is the constant that tells how readily two partners part at equilibrium. Lower therefore signals higher affinity. B1 gave a Kd of 1.67 nM and a T½ of 84 min.

B2: the Kd was determined as 1.4 nM and the T½ is given as 18 min.

B3 displayed an equilibrium dissociation constant (Kd) of 1.52 nM and a T½ of 7 min.

B4 yielded a Kd of 0.972 nM and a T½ of 28 min.

As for B5, the dissociation constant Kd was 1.41 nM and the T½ was determined as 35 min.

In turn, B6 registered a Kd of 0.894 nM and a T½ of 15 min.

Take B7: binding was put at a Kd of 1.73 nM and the T½ is recorded as 6 min.

The same assay, now with this note: 37° C., antibody-capture format, analyte hPRLR.mmh.
Take B1: the equilibrium dissociation constant (Kd) worked out at 2.83 nM and the T½ turned out to be 32 min.

On to B2, for which the Kd was 6.34 nM and the T½ worked out at 3 min.

With B3, the Kd worked out at 3.81 nM and the T½ was 2 min.

B4 yielded a dissociation constant (Kd) of 1.47 nM and a T½ of 10 min.

Molecule B5 yielded a dissociation constant (Kd) of 3.02 nM and a T½ of 11 min.

The molecule B6 gave a dissociation constant Kd of 4.63 nM and a T½ of 3 min.

For the molecule B7, binding was put at a Kd of 6.37 nM and the T½ was determined as 1 min.

Another assay deals with HEK293/hPRLR/STAT5-Luc cells (human PRLR). The assay is described as follows: STAT5-Luc luciferase reporter assay, blocking of PRL-mediated receptor activation. In kind it is cell-based. Conditions: 5 nM constant PRL, 6 hr at 37° C. The essentials:
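Engineered HEK293 line stably carrying human PRLR and a STAT5-dependent luciferase reporter; antibodies (100 nM to 24 pM) incubated 6 hr at 37° C with 5 nM constant PRL, luminescence read. IC50 from four-parameter fit of 8-point curves; percent blocking at highest antibody dose; agonism without ligand also tested.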
For orientation: In a reporter assay the amount or activity of a reporter protein is the signal.
For orientation: IC50 means the concentration at which inhibition is half-maximal. Take B1: the midpoint of inhibition, the IC50, lay at 0.627 nM.

Regarding B2, half-maximal inhibition (IC50) required 7.89 nM.

Turning to B4, half-maximal inhibition (IC50) was put at 0.355 nM.

Take B6: the 50% inhibitory concentration (IC50) was 0.14 nM.

The same assay, now with this note: 100 nM antibody, 5 nM PRL.
Consider B1, for which the “Percent Blocking at 100 nM Antibody” value is 100%.

B2: the “Percent Blocking at 100 nM Antibody” value was 100%.

On to B3, for which the “Percent Blocking at 100 nM Antibody” value amounted to 0%.

As for B4, the “Percent Blocking at 100 nM Antibody” value is recorded as 100%.

Regarding B5, the “Percent Blocking at 100 nM Antibody” value is listed as 65%.

Consider B6, for which the “Percent Blocking at 100 nM Antibody” value came to 100%.

Consider B7, for which the “Percent Blocking at 100 nM Antibody” value is 0%.
